# Source: patent US20100136580A1 (Genentech, published 2010)
# T1: GST-Dvl2PDZ fusion protein (human, UniProt O14641 248-364)
# T1 construct: range 248-364; Made with the pGEX E. coli expression system; also called GST-PDZ fusion protein; not shown: glutathione S-transferase (GST) encoded by plasmid pGEX
# T1 sequence (looked up): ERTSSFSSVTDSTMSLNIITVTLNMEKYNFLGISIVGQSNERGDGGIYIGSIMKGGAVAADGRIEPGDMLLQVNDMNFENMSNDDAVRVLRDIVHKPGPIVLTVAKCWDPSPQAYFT
# Molecular target: T1, GST-Dvl2PDZ fusion protein
# Assay: phage display selection on GST-Dvl2PDZ
# Procedure: The libraries were cycled through rounds of binding selection with a GST-Dvl2PDZ fusion protein coated on 96-well Maxisorp immunoplates as the capture target. Phage were propagated in E. coli XL1-blue with M13-KO7 helper phage and 10 μM IPTG. After four rounds of binding selection, individual phage clones were analyzed in a high-throughput phage ELISA, and positive clones were subjected to DNA sequence analysis.
# We used decapeptide libraries fused to the C-terminus or N-terminus of the phage coat protein. The library contained NNK degenerate codons that encoded all 20 natural amino acids. The possible occurrence of amber stop codons in the degenerate codon also provided for the display of shorter peptides for the C-terminal library. Each library was cycled through four rounds of binding selection with immobilized GST-Dvl2PDZ fusion protein as the capture target.
row,Binder,binding result
1,AVRWLFLGWF [SEQ ID NO 15],binds
2,EWSHVYYGWLGGG [SEQ ID NO 42],binds
3,MMWIDGPLAS [SEQ ID NO 150],binds
4,GWTWKDYGMIGGG [SEQ ID NO 49],binds
5,EKIVKDYGWIGGG [SEQ ID NO 51],binds
6,GEMWVDGPCL [SEQ ID NO 162],binds
7,ETWIDGPMYT [SEQ ID NO 153],binds
8,KFLGWF [SEQ ID NO 30],binds
9,LLFLKYYGWL [SEQ ID NO 20],binds
10,RIVSFFYGWL [SEQ ID NO 29],binds
11,NRWRLLGWF [SEQ ID NO 11],binds
12,DIVLTNYGWIGGG [SEQ ID NO 43],binds
13,TWRVLGWF [SEQ ID NO 23],binds
14,IVRWTLLGIF [SEQ ID NO 7],binds
15,RPFCTFLGWF [SEQ ID NO 37],binds
16,LTEIWIDGWP [SEQ ID NO 154],binds
17,MTKWIWYGWL [SEQ ID NO 35],binds
18,SWYFKFYGWL [SEQ ID NO 38],binds
19,TSWCKWYGWL [SEQ ID NO 12],binds
20,ELRWHDYGWIGGG [SEQ ID NO 56],binds
21,RTRFTCFGWF [SEQ ID NO 34],binds
22,LVVKDYGWIGGG [SEQ ID NO 47],binds
23,DRIRFLGWF [SEQ ID NO 14],binds

row,Binder,binding result
1,RSGHRFLGWF [SEQ ID NO 16],binds
2,PEVWIDGPESG [SEQ ID NO 156],binds
3,DMDFTGFGWLGGG [SEQ ID NO 55],binds
4,NVFRFFGWL [SEQ ID NO 22],binds
5,QTIWKDYGII [SEQ ID NO 165],binds
6,QTIWKDYGIIGGG [SEQ ID NO 45],binds
7,YFFYGWF [SEQ ID NO 31],binds
8,SHFKFFGWF [SEQ ID NO 26],binds
9,RISWTFLGYF [SEQ ID NO 36],binds
10,SEWKNYGYIGGG [SEQ ID NO 48],binds
11,ELRWHDYGWIGGG [SEQ ID NO 40],binds
12,GTQWKDYGWLGGG [SEQ ID NO 53],binds
13,QWVMTECGWIGGG [SEQ ID NO 52],binds
14,TTEVWVDWPM [SEQ ID NO 161],binds
15,SISYWFYGWL [SEQ ID NO 19],binds
16,TSSWKWYGWL [SEQ ID NO 8],binds
17,YWTRTFYGFF [SEQ ID NO 10],binds
18,VPTWIDGPCVD [SEQ ID NO 158],binds
19,TSFLKGYGWL [SEQ ID NO 18],binds
20,NEVWIDGPGQ [SEQ ID NO 157],binds
21,NEVWIDGPGI [SEQ ID NO 159],binds
22,PRIFKDYGMF [SEQ ID NO 9],binds
23,GEMWVDGPCL [SEQ ID NO 151],binds

row,Binder,binding result
1,EMVVTNYGWIGGG [SEQ ID NO 54],binds
2,ELRWHDYGWIGGG [SEQ ID NO 57],binds
3,TIWWDYGAI [SEQ ID NO 166],binds
4,SWKLLGFF [SEQ ID NO 17],binds
5,QAVYKNYGWIGGG [SEQ ID NO 41],binds
6,ERWIDYGYIL [SEQ ID NO 152],binds
7,ITRYTFFGFF [SEQ ID NO 39],binds
8,NKRYTVLGWF [SEQ ID NO 6],binds
9,TVRWVFFGFF [SEQ ID NO 33],binds
10,AEVWVDGPYI [SEQ ID NO 164],binds
11,TPLYNYFGGL [SEQ ID NO 32],binds
12,YTFFGWF [SEQ ID NO 25],binds
13,FWIYKYYGRF [SEQ ID NO 13],binds
14,STRHYRTWWF [SEQ ID NO 21],binds
15,TVVWHDYGWIGGG [SEQ ID NO 44],binds
16,NRIPCLGGW [SEQ ID NO 27],binds
17,WVLVDYGVIGGG [SEQ ID NO 46],binds
18,SWWNKCYGWF [SEQ ID NO 5],binds
19,SPRFTFLGWF [SEQ ID NO 28],binds
20,NWKWYGFF [SEQ ID NO 24],binds
21,AEQWIDGPHL [SEQ ID NO 160],binds
22,TVVWHDYGWIGGG [SEQ ID NO 50],binds
